# Measurements from paper PMC7616481, “The functional evolution of collembolan Ubx on the regulation of abdominal appendage formation”.
# B1: DMXR (dsDNA)
# DNA 1: GACAATATTTGGGAAATTAAATCATTCCCGCGGACAGTTTTATAGTGC
# DNA 2: GCACTATAAAACTGTCCGCGGGAATGATTTAATTTCCCAAATATTGTC
# Assays:
# [1] = molecular target: FcUbx isoform 1 (FcU1, FcUbx1), N-terminally truncated (Folsomia candida, UniProt A0AA95ZMF5 39-293); assay: EMSA; 0.2-1.5 pmol FcU1; 20 ul with EMSA buffer (5x: 0.1 M Tris, 25% glycerol, 0.2 mg/ml BSA), MgCl2 (2.5 M stock), DTT (1 M stock), poly(dI-dC), 20 ng Cy5 probe; 25 min at 25 C; 12% native PAGE on ice; pH not stated; details: protein: recombinant; tags: GST; label: 5'-Cy5 (both strands)
# [2] = molecular target: FcUbx isoform 2 (FcU2, FcUbx2), N-terminally truncated (Folsomia candida, UniProt A0AA96CC73 39-288); assay: EMSA; 0.4-3 pmol FcU2; 20 ul with EMSA buffer (5x: 0.1 M Tris, 25% glycerol, 0.2 mg/ml BSA), MgCl2 (2.5 M stock), DTT (1 M stock), poly(dI-dC), 20 ng Cy5 probe; 25 min at 25 C; 12% native PAGE on ice; pH not stated; details: protein: recombinant; tags: GST; label: 5'-Cy5 (both strands)
binder,measurement,setting,value
B1,binding result,[1],binds
same,binding result,[2],binds
